Measurements from article PMC10397247.
Each block holds one binder with its values, some of them ahead of it.

How the values were obtained:
Experiment in all cases: two-hybrid library CCNG1;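 also: natural log of median RNA to DNA barcode read ratio; higher means stronger binding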
4H906-bH = target: T1, 4H906-bH
T1 chain: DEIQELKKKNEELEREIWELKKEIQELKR

O2-bN = target: T2, O2-bN
T2 chain: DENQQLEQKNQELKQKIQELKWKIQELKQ

4H3628-bH = target: T3, 4H3628-bH
T3 chain: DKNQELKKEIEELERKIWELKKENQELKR

4H3462-bH = target: T4, 4H3462-bH
T4 chain: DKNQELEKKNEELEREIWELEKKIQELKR

4H591-bH = target: T5, 4H591-bH
T5 chain: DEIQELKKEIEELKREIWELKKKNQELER

4H3926-bH = target: T6, 4H3926-bH
T6 chain: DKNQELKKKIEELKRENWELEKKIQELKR

4H3497-bH = target: T7, 4H3497-bH
T7 chain: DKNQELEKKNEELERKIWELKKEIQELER

4H3613-bH = target: T8, 4H3613-bH
T8 chain: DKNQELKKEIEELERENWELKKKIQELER

4H626-bH = target: T9, 4H626-bH
T9 chain: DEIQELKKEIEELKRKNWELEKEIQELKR

O9-bH = target: T10, O9-bH
T10 chain: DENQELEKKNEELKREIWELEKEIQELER

O7-bH = target: T11, O7-bH
T11 chain: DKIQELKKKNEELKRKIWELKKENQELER

O6-bH = target: T12, O6-bH
T12 chain: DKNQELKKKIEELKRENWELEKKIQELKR

O5-bH = target: T13, O5-bH
T13 chain: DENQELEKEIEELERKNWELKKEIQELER

O4-bH = target: T14, O4-bH
T14 chain: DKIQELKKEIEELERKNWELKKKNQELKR

O8-bH = target: T15, O8-bH
T15 chain: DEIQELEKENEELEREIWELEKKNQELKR

4H683-bA = target: T16, 4H683-bA
T16 chain: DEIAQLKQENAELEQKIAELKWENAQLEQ

4H908-bA = target: T17, 4H908-bA
T17 chain: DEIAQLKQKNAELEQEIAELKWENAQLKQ

4H457-bA = target: T18, 4H457-bA
T18 chain: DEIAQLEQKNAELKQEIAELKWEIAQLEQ

4H346-bA = target: T19, 4H346-bA
T19 chain: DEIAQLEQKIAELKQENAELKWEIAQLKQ

4H968-bA = target: T20, 4H968-bA
T20 chain: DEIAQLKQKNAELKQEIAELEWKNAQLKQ

4H3354-bA = target: T21, 4H3354-bA
T21 chain: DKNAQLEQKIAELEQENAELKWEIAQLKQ

4H3926-bA = target: T22, 4H3926-bA
T22 chain: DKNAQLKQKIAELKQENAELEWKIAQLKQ

4H717-bA = target: T23, 4H717-bA
T23 chain: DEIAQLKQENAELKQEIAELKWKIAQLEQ

4H3112-bA = target: T24, 4H3112-bA
T24 chain: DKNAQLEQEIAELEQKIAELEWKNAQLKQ

4H338-bA = target: T25, 4H338-bA
T25 chain: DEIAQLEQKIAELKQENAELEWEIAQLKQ

4H918-bA = target: T26, 4H918-bA
T26 chain: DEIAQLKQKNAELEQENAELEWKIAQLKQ

4H967-bA = target: T27, 4H967-bA
T27 chain: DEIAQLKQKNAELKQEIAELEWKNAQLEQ

4H4073-bA = target: T28, 4H4073-bA
T28 chain: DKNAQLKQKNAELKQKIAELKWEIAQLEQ

4H883-bA = target: T29, 4H883-bA
T29 chain: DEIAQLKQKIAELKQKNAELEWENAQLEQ

4H780-bA = target: T30, 4H780-bA
T30 chain: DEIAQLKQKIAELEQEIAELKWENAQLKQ

4H454-bA = target: T31, 4H454-bA
T31 chain: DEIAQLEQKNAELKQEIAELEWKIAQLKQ

4H4001-bA = target: T32, 4H4001-bA
T32 chain: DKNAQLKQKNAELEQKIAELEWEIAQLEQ

4H568-bA = target: T33, 4H568-bA
T33 chain: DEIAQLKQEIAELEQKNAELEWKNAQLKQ

4H953-bA = target: T34, 4H953-bA
T34 chain: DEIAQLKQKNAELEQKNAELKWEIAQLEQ

4H3782-bA = target: T35, 4H3782-bA
T35 chain: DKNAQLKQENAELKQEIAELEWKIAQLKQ

4H687-bA = target: T36, 4H687-bA
T36 chain: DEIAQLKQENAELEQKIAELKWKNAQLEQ

4H797-bA = target: T37, 4H797-bA
T37 chain: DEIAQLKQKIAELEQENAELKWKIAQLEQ

4H754-bA = target: T38, 4H754-bA
T38 chain: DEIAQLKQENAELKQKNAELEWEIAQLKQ

4H331-bA = target: T39, 4H331-bA
T39 chain: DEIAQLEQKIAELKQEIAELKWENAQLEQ

4H855-bA = target: T40, 4H855-bA
T40 chain: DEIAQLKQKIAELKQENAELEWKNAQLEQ

4H3427-bA = target: T41, 4H3427-bA
T41 chain: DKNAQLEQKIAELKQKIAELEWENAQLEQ

4H72-bA = target: T42, 4H72-bA
T42 chain: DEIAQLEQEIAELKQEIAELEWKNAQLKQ

4H3185-bA = target: T43, 4H3185-bA
T43 chain: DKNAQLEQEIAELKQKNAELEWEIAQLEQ

4H607-bA = target: T44, 4H607-bA
T44 chain: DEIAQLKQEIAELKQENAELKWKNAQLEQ

4H575-bA = target: T45, 4H575-bA
T45 chain: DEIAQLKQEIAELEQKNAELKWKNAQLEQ

4H3855-bA = target: T46, 4H3855-bA
T46 chain: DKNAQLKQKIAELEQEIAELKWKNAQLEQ

- interaction score (4H906-bH): 0.0503
- interaction score (O2-bN): 1.13
- interaction score (4H3628-bH): 0.726
- interaction score (4H3462-bH): 0.634
- interaction score (4H591-bH): -0.285
- interaction score (4H3926-bH): 0.869
- interaction score (4H3497-bH): 1.43
- interaction score (4H3613-bH): -0.585
- interaction score (4H626-bH): -0.748
Binder: DKNQELEKKNEELEREIWELEKKIQELKR [4H3462-bH]

- interaction score (O9-bH): -2.1
- interaction score (O7-bH): 0.376
- interaction score (O6-bH): 0.0257
- interaction score (O5-bH): -1.47
- interaction score (O4-bH): -1.04
- interaction score (O8-bH): 1.07
Binder: DKIQELKKEIEELERKNWELKKKNQELKR [O4-bH]

- interaction score (4H683-bA): -0.379
- interaction score (4H908-bA): 0.0545
- interaction score (4H457-bA): -0.509
- interaction score (4H346-bA): -0.0408
- interaction score (4H968-bA): -1.09
- interaction score (4H3354-bA): 0.000615
- interaction score (4H3926-bA): -0.342
- interaction score (4H717-bA): 0.267
- interaction score (4H3112-bA): 1.17
- interaction score (4H338-bA): -0.842
- interaction score (4H918-bA): -1.88
- interaction score (4H967-bA): -0.715
- interaction score (4H4073-bA): 1.32
- interaction score (4H883-bA): 0.791
- interaction score (4H780-bA): -0.567
- interaction score (4H454-bA): -1.72
- interaction score (4H4001-bA): -0.41
- interaction score (4H568-bA): -1.31
- interaction score (4H953-bA): -0.984
- interaction score (4H3782-bA): -0.731
- interaction score (4H687-bA): -1.13
- interaction score (4H797-bA): 0.364
- interaction score (4H754-bA): -0.483
- interaction score (4H331-bA): 0.496
- interaction score (4H855-bA): 1.01
- interaction score (4H3427-bA): 1.55
- interaction score (4H72-bA): -0.233
- interaction score (4H3185-bA): 0.447
- interaction score (4H607-bA): -0.643
- interaction score (4H575-bA): -0.587
- interaction score (4H3855-bA): -0.227
Binder: DKNAQLEQEIAELEQKIAELEWKNAQLKQ [4H3112-bA]
